Assay results: US20220411514A1, “ANTI-GAL3 ANTIBODIES AND METHODS OF USE FOR INSULIN RESISTANCE” (TrueBinding, Inc., priority 2021, published 2022)

Columns and labels:
hGal3 peptide = biological target: T1, hGal3 peptide (Homo sapiens, UniProt P17931); test: Gal3 peptide library binding ELISA (Example 2)
T1 construct: a library of 24 amino acid peptides representing portions of Gal3
Protocol: To identify the epitopes to which Gal3 antibodies with and without Gal3-INSR blocking activity bound, a library of 24 amino acid peptides representing portions of Gal3, depicted in FIG. 18, was produced and the ability of each peptide to bind Gal3 antibodies was evaluated by ELISA. At least 2 μg/ml of hGal3 peptide in 50 μl of PBS or 0.1 μg/ml of full-length human Gal3 protein (GenScript) and human Galectin-3 protein (Acro Biosystems, GA3-H5129) were diluted in PBS (Corning, 21-030-CM) to concentrations of at least 2 μg/ml or 0.1 μg/ml, respectively, and added to the wells of a 96-well ELISA plate (Thermo Fisher, 44-2404-21). After incubating the plate at 4° C. overnight, the plate was washed three times with PBST (PBS with 0.05% Tween 20 [VWR, 0777]). The plate was then blocked for an hour with 2% BSA (EMD Millipore, 126609) in PBST at room temperature with gentle rocking. Thereafter, the 2% BSA in PBST was discarded and human Galectin-3 hybridoma supernatants or antibodies were diluted in 2% BSA in PBST to concentrations of at least 0.1 μg/ml and added to the wells. The plate was incubated for an hour at room temperature with gentle rocking and then washed three times with PBST. Afterwards, Goat Anti-Mouse IgG-HRP (Jackson ImmunoResearch, 115-036-1461) or Goat Anti-Rat IgG HRP (Abcam, ab205720) diluted in 2% BSA in PBST (1:4000) were added to the wells. The plate was incubated for 30 minutes to 1 hour at room temperature with gentle rocking and then washed three times with PBST. TMB substrate (Thermo Scientific, 34029) was then added to each well. The reaction was stopped with 1M HCl (JT Baker, 5620-02) and read using a plate reader (Molecular Devices) at absorbance of 450 nm.

Human Gal3 peptides = biological target: T2, Human Gal3 peptides (Homo sapiens, UniProt P17931); test: Gal3 peptide binding ELISA (Example 8); details: antibody 5 μg/mL
T2 construct: purchased LifeTein custom order
How it was run: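 Plates coated overnight at 4 °C with human Gal3 peptides (at least 100 μg/mL) or Gal3 protein (1 μg/mL) in PBS, then blocked with 2% BSA/PBST. Antibodies as hIgG4 (S228P) at 5 μg/mL, 1 h at room temperature. Detection by HRP anti-human IgG F(ab′)2 and TMB, absorbance at 450 nm.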

Source text for NOD/ShiLtJ mice: To assess the therapeutic potential of anti-GAL3 antibody in Type I diabetes, a mouse model of diabetes type I was used. Briefly, seven-weeks-old female NOD/ShiLtJ mice (Jackson lab (001976)) and control group animals NOR/LtJ (Jackson Lab (002050)) were housed in standard disposable cages with filter tops at room temperature with a 6:00-18:00 day-night cycle. Mice were allowed to rest for a week before initiating glucose monitoring. The antibody treatment was initiated when glucose levels reach 250-400 (mg/dL) for two consecutive days. To establish glucose levels, the blood samples were collected from tail vein of the experimental animals following housing in clean cages with water and no food for 4-6 hours. The collected samples were analyzed by HemoCue Glucose 201 Analyzer and cuvettes (Mercedes Scientific 110706). The animals were dosed twice a week (10 mg/kg) with anti-GAL3 antibodies (mTB001) or PBS control. […] At the end stage, the plasma samples were collected from symptomatic animals. C-peptide levels were determined by Alpco Mouse C-peptide ELISA kit (Alpco, 80-CPTMS-E01).

| Molecule | binding to Gal3 peptide 1 (amino acids 1-20, SEQ ID NO: 3) (hGal3 peptide) | binding to Gal3 peptide 7 (amino acids 61-80, SEQ ID NO: 9) (hGal3 peptide) | binding to Gal3 peptide 1 (SEQ ID NO: 3) (Human Gal3 peptides) | binding to Gal3 peptide 7 (SEQ ID NO: 9) (Human Gal3 peptides) | binding to Gal3 peptide 6 (SEQ ID NO: 8) (Human Gal3 peptides) | binding to Gal3 peptide 8 (SEQ ID NO: 10) (Human Gal3 peptides) | blood glucose levels (NOD/ShiLtJ mice; 10 mg/kg twice a week) | survival (NOD/ShiLtJ mice; 10 mg/kg twice a week) | circulating C-peptide levels (NOD/ShiLtJ mice; end stage plasma) |
| --- | --- | --- | --- | --- | --- | --- | --- | --- | --- |
| 19B5.2E6: anti-Gal3 antibody (antibody, 19B5.2E6 heavy chain peptide sequence; 19B5.2E6/23H9.2E4 light chain peptide sequence, anti-Gal3 antibody) heavy: QIQLVQSGPELKKPGETVKISCKASGYTFTTYAMSWVKQAPGKGLKWMGWINTYSGVPTYADDLKGRFAFSLETSASTAYLQINNLKNEDTATYFCARGPYAMDYWGQGTSVTVSSAKTTPPSVYPLAPVCGDTTGSSVTLGCLVKGYFPEPVTLTWNSGSLSSGVHTFPAVLQSDLYTLSSSVTVTSSTWPSQSITCNVAHPASSTKVDKKIEPRGPTIKPCPPCKCPAPNAAGGPSVFIFPPKIKDVLMISLSPIVTCVVVDVSEDDPDVQISWFVNNVEVHTAQTQTHREDYNSTLRVVSALPIQHQDWMSGKEFKCKVNNKDLGAPIERTISKPKGSVRAPQVYVLPPPEEEMTKKQVTLTCMVTDFMPEDIYVEWTNNGKTELNYKNTEPVLDSDGSYFMYSKLRVEKKNWVERNSYSCSVVHEGLHNHHTTKSFSRTPGK light: DIQMTQTTSSLSASLGDRVTISCSASQGINNYLNWYQQKPDGTVKLLIYYASSLHSGVPSRFSGSGSGTDYSLTISNLEPEDIATYYCQQYSQVPYTFGSGTKLEIKRADVAPTVSIFPPSSEQLTSGGASVVCFLNNFYPKDINVKWKIDGSERQNGVLNSWTDQDSKDSTYSMSSTLTLTKDEYERHNSYTCEATHKTSTSPIVKSFNRNEC | bound | bound | bound | bound |  |  |  |  |  |
| 23H9.2E4: anti-Gal3 antibody (antibody, 23H9.2E4 heavy chain peptide sequence; 19B5.2E6/23H9.2E4 light chain peptide sequence, anti-Gal3 antibody) heavy: QIQLVQSGPELKKPGETVKISCKASGYTFTTYAMSWVKQAPGKGLKWMGWINTYSGVPTYADDLKGRFAFSLETSASTAYLQINNLKNEDTATYFCARGPYAMDYWGQGTSVTVSSAKTTPPSVYPLAPVCGDTTGSSVTLGCLVKGYFPEPVTLTWNSGSLSSGVHTFPAVLQSDLYTLSSSVTVTSSTWPSQSITCNVAHPASSTKVDKKIEPRGPTIKPCPPCKCPAPNAAGGPSVFIFPPKIKDVLMISLSPIVTCVVVDVSEDDPDVQISWFVNNVEVHTAQTQTHREDYNSTLRVVSALPIQHQDWMSGKEFKCKVNNKDLGAPIERTISKPKGSVRAPQVYVLPPPEEEMTKKQVTLTCMVTDFMPEDIYVEWTNNGKTELNYKNTEPVLDSDGSYFMYSKLRVEKKNWVERNSYSCSVVHEGLHNHHTTKSFSRTPGK light: DIQMTQTTSSLSASLGDRVTISCSASQGINNYLNWYQQKPDGTVKLLIYYASSLHSGVPSRFSGSGSGTDYSLTISNLEPEDIATYYCQQYSQVPYTFGSGTKLEIKRADVAPTVSIFPPSSEQLTSGGASVVCFLNNFYPKDINVKWKIDGSERQNGVLNSWTDQDSKDSTYSMSSTLTLTKDEYERHNSYTCEATHKTSTSPIVKSFNRNEC | bound | bound | bound | bound | bound | bound |  |  |  |
| mTB001: anti-Gal3 antibody mTB001 (antibody, mTB001 heavy chain peptide sequence; mTB001 light chain peptide sequence) heavy: QIQLVQSGPELKKPGETVKISCKASGYTFTNYGMNWVKQAPGKGLKWMGWINTNTGEPTYVEEFKGRFAFSLETSASTAYLQINNLKNEDTATYFCAPYDNFFAYWGQGTLVTVSAAKTTPPSVYPLAPVCGDTTGSSVTLGCLVKGYFPEPVTLTWNSGSLSSGVHTFPAVLQSDLYTLSSSVTVTSSTWPSQSITCNVAHPASSTKVDKKIEPRGPTIKPCPPCKCPAPNAAGGPSVFIFPPKIKDVLMISLSPIVTCVVVDVSEDDPDVQISWFVNNVEVHTAQTQTHREDYNSTLRVVSALPIQHQDWMSGKEFKCKVNNKDLGAPIERTISKPKGSVRAPQVYVLPPPEEEMTKKQVTLTCMVTDFMPEDIYVEWTNNGKTELNYKNTEPVLDSDGSYFMYSKLRVEKKNWVERNSYSCSVVHEGLHNHHTTKSFSRTPGK light: DIVITQDELSNPVTSGESVSISCRSSKSLLYKDGKTYLNWFLQRPGQSPQLLIYLMSTHASGVSDRFSGSGSGTDFTLEISRVKAEDVGVYYCQQLVDYPLTFGAGTKLELKRADVAPTVSIFPPSSEQLTSGGASVVCFLNNFYPKDINVKWKIDGSERQNGVLNSWTDQDSKDSTYSMSSTLTLTKDEYERHNSYTCEATHKTSTSPIVKSFNRNEC |  |  |  |  |  |  | stabilizing the levels of blood glucose | prolonged survival | restoring C-peptide levels |
| 20D11.2C6: anti-Gal3 antibody (antibody, 20D11.2C6 heavy chain peptide sequence; 20D11.2C6 light chain peptide sequence, anti-Gal3 antibody) heavy: EVQLQQSGPELVKPGASVKISCKASGYTFTDFYINWVKQSHGKSLEWIGDINPKNGGINYNPKFKIKATLTVDKSSSTSYMDLRGLTSEDSAVYYCTSGYGFPYWGQGTLVTVSAAKTTPPSVYPLAPVCGDTTGSSVTLGCLVKGYFPEPVTLTWNSGSLSSGVHTFPAVLQSDLYTLSSSVTVTSSTWPSQSITCNVAHPASSTKVDKKIEPRGPTIKPCPPCKCPAPNAAGGPSVFIFPPKIKDVLMISLSPIVTCVVVDVSEDDPDVQISWFVNNVEVHTAQTQTHREDYNSTLRVVSALPIQHQDWMSGKEFKCKVNNKDLGAPIERTISKPKGSVRAPQVYVLPPPEEEMTKKQVTLTCMVTDFMPEDIYVEWTNNGKTELNYKNTEPVLDSDGSYFMYSKLRVEKKNWVERNSYSCSVVHEGLHNHHTTKSFSRTPGK light: DIQMNQSPSSLSASLGDTITITCRASQNIYIWLSWYQQKPGNIPKLLIYKASNLHTGVPSRFSGSGSGTDFTLTISTLQPEDIATYFCLQGQSYPLTFGAGTKLEMKRADVAPTVSIFPPSSEQLTSGGASVVCFLNNFYPKDINVKWKIDGSERQNGVLNSWTDQDSKDSTYSMSSTLTLTKDEYERHNSYTCEATHKTSTSPIVKSFNRNEC | bound | bound | bound | bound |  | bound |  |  |  |
